The target of assay [1] is D3H44 light chain Q124E_V133Y_T180E, N-terminal HA or FLAG tag. Nature of the assay: LCCA, SPR of light chain tags, L1:L2 DNA 1:3 norm. to 1:1; other light chain m14.
Assay [2] has as its target D3H44 light chain Q124R_T178R, N-terminal HA or FLAG tag. Nature of the assay: LCCA, SPR of light chain tags, L1:L2 DNA 1:3 norm. to 1:1; other light chain m22.
The target in assay [3] is D3H44 light chain S131E, N-terminal HA or FLAG tag. Nature of the assay: LCCA, SPR of light chain tags, L1:L2 DNA 1:3 norm. to 1:1; other light chain m14.
Assay [4] concerns the target D3H44 light chain Q124E_Q160E_T178E, N-terminal HA or FLAG tag. The assay is described as follows: LCCA, SPR of light chain tags, L1:L2 DNA 1:3 norm. to 1:1; other light chain m17.
For assay [5], the target named is D3H44 light chain Q124E_T178E, N-terminal HA or FLAG tag. Described as above.
Assay [6] has as its target D3H44 light chain Q124E_T178E_T180E, N-terminal HA or FLAG tag. Described as above.
For assay [7], the target named is D3H44 light chain Q124E_V133E, N-terminal HA or FLAG tag. Described as above.
The target of assay [8] is D3H44 light chain S131E, N-terminal HA or FLAG tag. The description is as above.
Assay [9] concerns the target D3H44 light chain Q124R_Q160K_T178R, N-terminal HA or FLAG tag. The assay is described as follows: LCCA, SPR of light chain tags, L1:L2 DNA 1:3 norm. to 1:1; other light chain m18.
For assay [10] the target is unchanged. The assay is described as follows: LCCA, SPR of light chain tags, L1:L2 DNA 1:3 norm. to 1:1; other light chain m19.
Assay [11] has as its target D3H44 light chain Q124R_T178R, N-terminal HA or FLAG tag. Described as above.
Assay [12] deals with D3H44 light chain Q124R_Q160K_T178R, N-terminal HA or FLAG tag. Nature of the assay: LCCA, SPR of light chain tags, L1:L2 DNA 1:3 norm. to 1:1; other light chain m21.
For assay [13] the target is unchanged. The assay is described as follows: LCCA, SPR of light chain tags, L1:L2 DNA 1:3 norm. to 1:1; other light chain m23.
The target is the same in assay [14]. Nature of the assay: LCCA, SPR of light chain tags, L1:L2 DNA 1:3 norm. to 1:1; other light chain m26.
Assay [15] deals with D3H44 light chain Q124E_T178E_T180E, N-terminal HA or FLAG tag. The assay is described as follows: LCCA, SPR of light chain tags, L1:L2 DNA 1:9 norm. to 1:1; other light chain m17.
For assay [16], the target named is D3H44 light chain Q124E_V133E, N-terminal HA or FLAG tag. The assay is described as above.
The target of assay [17] is D3H44 light chain Q124R_Q160K_T178R, N-terminal HA or FLAG tag. The assay is described as follows: LCCA, SPR of light chain tags, L1:L2 DNA 1:9 norm. to 1:1; other light chain m18.
Assay [18] has the same target. The assay is described as follows: LCCA, SPR of light chain tags, L1:L2 DNA 1:9 norm. to 1:1; other light chain m21.
The target in assay [19] is D3H44 light chain Q124E_S131T_T178F_T180E, N-terminal HA or FLAG tag. Nature of the assay: LCCA, SPR of light chain tags, L1:L2 DNA 1:3 norm. to 1:1; other light chain m14.
Assay [20] concerns the target D3H44 light chain Q124E_S131T_T178Y_T180E, N-terminal HA or FLAG tag. Described as above.
Assay [21] has as its target D3H44 light chain Q124E_S176L_T180E, N-terminal HA or FLAG tag. Described as above.
Assay [22] addresses D3H44 light chain Q124E_V133W_T180E, N-terminal HA or FLAG tag. The assay is described as above.
The target in assay [23] is D3H44 light chain Q124R_T178R, N-terminal HA or FLAG tag. Nature of the assay: LCCA, SPR of light chain tags, L1:L2 DNA 1:3 norm. to 1:1; other light chain m15.
Assay [24] shares this target. The assay is described as follows: LCCA, SPR of light chain tags, L1:L2 DNA 1:3 norm. to 1:1; other light chain m16.
For assay [25] the target is unchanged. Nature of the assay: LCCA, SPR of light chain tags, L1:L2 DNA 1:3 norm. to 1:1; other light chain m20.
The target is the same in assay [26]. The assay is described as follows: LCCA, SPR of light chain tags, L1:L2 DNA 1:3 norm. to 1:1; other light chain m25.
Assay [27] addresses D3H44 light chain Q124E_S131T_T178Y_T180E, N-terminal HA or FLAG tag. The assay is described as follows: LCCA, SPR of light chain tags, L1:L2 DNA 1:9 norm. to 1:1; other light chain m14.
The target in assay [28] is D3H44 light chain Q124E_S176L_T180E, N-terminal HA or FLAG tag. The description is as above.
The target in assay [29] is D3H44 light chain Q124R_T178R, N-terminal HA or FLAG tag. Nature of the assay: LCCA, SPR of light chain tags, L1:L2 DNA 1:9 norm. to 1:1; other light chain m15.
The target is the same in assay [30]. Nature of the assay: LCCA, SPR of light chain tags, L1:L2 DNA 1:9 norm. to 1:1; other light chain m16.
Assay [31] has as its target D3H44 light chain Q124E_V133D_S176L, N-terminal HA or FLAG tag. The assay is described as follows: LCCA, SPR of light chain tags, L1:L2 DNA 1:3 norm. to 1:1; other light chain m17.
Assay [32] concerns the target D3H44 light chain Q124R_Q160K_T178R, N-terminal HA or FLAG tag. The assay is described as follows: LCCA, SPR of light chain tags, L1:L2 DNA 1:3 norm. to 1:1; other light chain m27.
Assay [33] addresses D3H44 light chain Q124E_V133D_S176L, N-terminal HA or FLAG tag. The assay is described as follows: LCCA, SPR of light chain tags, L1:L2 DNA 1:9 norm. to 1:1; other light chain m17.
The target of assay [34] is D3H44 light chain Q124R_Q160K_T178R, N-terminal HA or FLAG tag. The assay is described as follows: LCCA, SPR of light chain tags, L1:L2 DNA 1:9 norm. to 1:1; other light chain m27.
Assay [35] has as its target D3H44 light chain Q124R, N-terminal HA or FLAG tag. Nature of the assay: LCCA, SPR of light chain tags, L1:L2 DNA 1:3 norm. to 1:1; other light chain m18.
Assay [36] deals with D3H44 light chain Q124E_V133E, N-terminal HA or FLAG tag. The assay is described as follows: LCCA, SPR of light chain tags, L1:L2 DNA 1:3 norm. to 1:1; other light chain m24.

For “D3H44 Fab heavy chain L143A_Q179K, ABD2-His6 tagged”, in assay [1], the H1L1:H1L2 normalized median ratio was determined as 96% and the H1L1:H1L2 normalized median scalar value ln(r1/f1) stood at 1. Also, the H1L1:H1L2 normalized median ratio in [2] came to 4%.

As to “D3H44 Fab heavy chain L143E_K145T, ABD2-His6 tagged”, the H1L1:H1L2 normalized median ratio in [3] is 54%; in assay [4], 41%; in assay [5], 41%; in [6], 18%; in [7], 21%; in assay [8], 53%. The H1L1:H1L2 normalized median ratio in assay [9] was 79%; in assay [10], 47%; in assay [11] it was 46%; in [12] it was 82%; in [13] it was 59%; in assay [14] it was 59%. For the same substance, the H1L1:H1L2 normalized median ratio in assay [15] was found to be 19%; in [16], 13%; in [17], 37%; in assay [18], 81%. For the same substance, the H1L1:H1L2 normalized median scalar value ln(r1/f1) in [9] is 1.35; in assay [10], -0.14; in assay [11], -0.16; in [12], 1.52; in assay [13] it was 0.37; in assay [14], 0.36. The substance further showed an H1L1:H1L2 normalized median scalar value ln(r1/f1) in assay [18] of 1.44.

“D3H44 Fab heavy chain L143E_K145T_Q179E_S188L, ABD2-His6 tagged”: the H1L1:H1L2 normalized median ratio in assay [19] is 23%; in assay [20], 17%; in [21], 13%; in assay [23], 83%; in [24] it was 87%; in [25] it was 77%. For the same substance, the H1L1:H1L2 normalized median ratio in assay [27] was found to be 21%; in [28] it was 10%; in assay [29], 79%; in assay [30], 90%. Moreover, the H2L2:H2L1 normalized median ratio was 25% in [22], 29% in [1], 71% in assay [2] and 75% in [26]. The H1L1:H1L2 normalized median scalar value ln(r1/f1) in assay [23] was 1.62; in [24] it was 1.9; in assay [25] it was 1.19; in [29] it was 1.33; in [30], 2.25.

In the case of “D3H44 Fab heavy chain L143K, ABD2-His6 tagged”, the H2L2:H2L1 normalized median ratio in assay [31] was determined as 94%; in assay [32], 6%; in [33] it was 91%; in [34], 9%.

Consider “D3H44 Fab heavy chain L143R, ABD2-His6 tagged”, for which the H2L2:H2L1 normalized median ratio stood at 96% in [7]; 4% in assay [35]; 4% in assay [9]; 96% in assay [36]; 93% in assay [16]; 7% in assay [17].

In the case of “D3H44 Fab heavy chain S186K, ABD2-His6 tagged”, the H2L2:H2L1 normalized median ratio in [19] was determined as 96%; in assay [20] it was 95%; in [3], 98%; in assay [23] it was 5%; in [5], 98%; in assay [8] it was 99%. Also, the H2L2:H2L1 normalized median ratio in assay [10] is 1%; in [11], 2%; in [25], 4%; in assay [14], 2%; in [27], 89%; in [29], 11%.

For the origin of these results see US11306156.
